Tests used:
[1] = biological target: Visinin-like Protein 1 (VILIP-1), unmyristoylated (human) (UniProt P62760); assay: small-angle X-ray scattering (SAXS); 12 mg/mL (542 uM) VILIP-1, 100 mM NaCl, 5 mM CaCl2, 2.5 mM DTT, 20 mM HEPES pH 7.5, 20 °C; mass from forward scattering, ab initio shape
[2] = biological target: Visinin-like Protein 1 (VILIP-1), unmyristoylated (human) (UniProt P62760); assay: SEC; Sephadex 200 column, 100 mM NaCl, 20 mM HEPES pH 7.5, 0.5 mL/min; samples with 0.1 mM EDTA or 5 mM CaCl2, non-reduced or reduced with 2.5 mM DTT; monomer and dimer peaks

stoichiometry N [1]: 2 | stoichiometry N [2]: 2
Substance: Visinin-like Protein 1 (VILIP-1), unmyristoylated (from UniProt P62760 1-191) (natural protein)

— PMC3206844
